The text below walks through data of patent US20190359653A1, “SELECTIVE PEPTIDE INHIBITORS OF FRIZZLED” (Genentech, Inc., priority 2016, published 2019).

The test concerns the target FZD7 class proteins. The test can be described thus: ELISA of biotinylated Wnt binding to FZD CRD-Fc with or without peptide. On the technique in general: In an ELISA, binding on a coated surface is turned into a signal by an enzyme label.

Take “Biotinylated Wnt3a (from UniProt P27467 19-352) (ligand)”: the fold enhancement of binding by Fz7-21 or dFz7-21 was 1.5 to 2 fold.
